{"source": "patent US20210214414A1", "about": "(Pfizer, published 2021)", "key": {"[1]": {"biological_target": "T1, Human SLIT1-N (human, UniProt O75093 34-1127, limits assumed)", "T1 construct": "domain: SLIT1-N; d2-labelled in the HTRF assay", "T1 sequence (looked up)": "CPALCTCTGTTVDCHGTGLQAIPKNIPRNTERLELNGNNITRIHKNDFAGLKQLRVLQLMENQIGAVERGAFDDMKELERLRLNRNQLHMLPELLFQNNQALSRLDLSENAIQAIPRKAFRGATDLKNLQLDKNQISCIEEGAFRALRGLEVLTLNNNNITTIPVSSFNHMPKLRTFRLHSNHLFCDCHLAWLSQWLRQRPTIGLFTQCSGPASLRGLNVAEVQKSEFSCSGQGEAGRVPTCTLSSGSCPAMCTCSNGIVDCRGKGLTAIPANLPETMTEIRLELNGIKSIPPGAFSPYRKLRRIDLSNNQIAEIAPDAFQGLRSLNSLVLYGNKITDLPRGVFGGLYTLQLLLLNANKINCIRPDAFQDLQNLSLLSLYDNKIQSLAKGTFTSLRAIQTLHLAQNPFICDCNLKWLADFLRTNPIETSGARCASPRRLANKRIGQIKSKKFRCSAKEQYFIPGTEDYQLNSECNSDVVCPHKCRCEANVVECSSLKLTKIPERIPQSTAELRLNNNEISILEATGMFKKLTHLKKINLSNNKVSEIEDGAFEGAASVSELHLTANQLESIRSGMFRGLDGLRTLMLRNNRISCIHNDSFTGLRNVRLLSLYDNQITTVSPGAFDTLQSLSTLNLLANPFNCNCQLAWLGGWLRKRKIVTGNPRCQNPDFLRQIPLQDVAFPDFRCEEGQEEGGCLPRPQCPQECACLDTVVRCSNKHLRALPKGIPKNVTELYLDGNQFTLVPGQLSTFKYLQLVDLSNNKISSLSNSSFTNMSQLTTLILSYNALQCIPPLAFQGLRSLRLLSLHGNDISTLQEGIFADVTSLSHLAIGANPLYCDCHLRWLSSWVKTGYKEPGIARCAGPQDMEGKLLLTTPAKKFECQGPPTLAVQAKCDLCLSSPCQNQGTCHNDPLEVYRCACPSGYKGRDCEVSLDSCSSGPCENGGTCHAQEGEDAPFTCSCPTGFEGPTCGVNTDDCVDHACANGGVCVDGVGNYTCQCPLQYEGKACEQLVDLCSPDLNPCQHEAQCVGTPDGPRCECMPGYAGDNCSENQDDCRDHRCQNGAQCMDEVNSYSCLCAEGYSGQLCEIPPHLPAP", "test": "HTRF competition: d2-labelled human SLIT1-N binding to human ROBO2 on HEK293 cells; geometric mean, n=3", "experimental": "(§1) After incubation, fluorescence at 665 nm and 620 nm was measured on an Envision multilabel plate reader. The HTRF Ratio was calculated as follows: fluorescence at 665 nm/fluorescence at 620 nm×10,000. […] The IC₅₀ for each SLITx-N was determined using an 11-point, 4-fold dilution series with a top concentration of 4000 nM."}, "[2]": {"biological_target": "T2, Mouse SLIT3-N (mouse, UniProt Q9WVB4 34-1119, limits assumed)", "T2 construct": "domain: SLIT3-N; d2-labelled in the HTRF assay", "T2 sequence (looked up)": "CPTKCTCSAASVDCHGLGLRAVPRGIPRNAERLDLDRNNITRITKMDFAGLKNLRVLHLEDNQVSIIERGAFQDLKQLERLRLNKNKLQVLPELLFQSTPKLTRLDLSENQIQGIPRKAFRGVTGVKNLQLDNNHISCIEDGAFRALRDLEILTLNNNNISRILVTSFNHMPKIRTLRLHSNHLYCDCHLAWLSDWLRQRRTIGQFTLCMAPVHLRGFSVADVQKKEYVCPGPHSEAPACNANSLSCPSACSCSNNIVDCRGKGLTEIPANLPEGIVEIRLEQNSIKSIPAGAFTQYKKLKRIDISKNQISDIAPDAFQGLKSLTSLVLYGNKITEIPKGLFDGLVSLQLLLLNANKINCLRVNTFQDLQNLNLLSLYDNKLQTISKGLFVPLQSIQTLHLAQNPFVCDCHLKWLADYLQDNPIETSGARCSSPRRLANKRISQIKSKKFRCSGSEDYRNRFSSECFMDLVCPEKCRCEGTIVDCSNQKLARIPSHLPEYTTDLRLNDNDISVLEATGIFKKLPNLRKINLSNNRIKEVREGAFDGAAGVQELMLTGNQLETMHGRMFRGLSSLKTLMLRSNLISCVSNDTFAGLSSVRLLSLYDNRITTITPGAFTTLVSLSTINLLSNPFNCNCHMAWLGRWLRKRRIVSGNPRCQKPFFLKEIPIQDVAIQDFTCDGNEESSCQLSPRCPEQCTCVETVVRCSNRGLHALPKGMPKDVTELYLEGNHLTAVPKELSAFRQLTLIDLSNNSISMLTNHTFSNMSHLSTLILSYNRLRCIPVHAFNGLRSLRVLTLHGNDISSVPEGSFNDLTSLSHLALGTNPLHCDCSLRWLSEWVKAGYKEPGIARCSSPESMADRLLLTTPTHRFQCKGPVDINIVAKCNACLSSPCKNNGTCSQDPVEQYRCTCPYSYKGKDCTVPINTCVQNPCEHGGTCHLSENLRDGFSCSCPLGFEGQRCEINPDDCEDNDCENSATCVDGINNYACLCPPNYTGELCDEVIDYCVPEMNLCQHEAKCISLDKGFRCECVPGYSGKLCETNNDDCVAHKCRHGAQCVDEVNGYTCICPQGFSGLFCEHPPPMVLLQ", "test": "HTRF competition: d2-labelled mouse SLIT3-N binding to human ROBO2 on HEK293 cells; geometric mean, n=3", "experimental": "as §1"}}}
{"binder": "ROBO2-Fc 2.2 (Fc fusion, Labelled with Alexa Fluor 647 in the flow cytometry assay; also called ROBO-Fc 2.2; ROBO2-Fc 2.2-AF647) SRLRQEDFPPRIVEHPSDVIVSKGEPTTLNCKAEGRPTPTIEWYKDGERVETDKDDPRSHRMLLPSGSLFFLRIVHGRRSKPDEGSYVCVARNYLGEAVSRNASLEVALLRDDFRQNPTDVVVAAGEPAILECQPPRGHPEPTIYWKKDKVRIDDKEERISIRGGKLMISNTRKSDAGMYTCVGTNMVGERDSDPAELTVFERGGSGGSEPKSSDKTHTCPPCPAPEAAGAPSVFLFPPKPKDTLMISRTPEVTCVVVDVSHEDPEVKFNWYVDGVEVHNAKTKPREEQYNSTYRVVSVLTVLHQDWLNGKEYKCKVSNKALPAPIEKTISKAKGQPREPQVYTLPPSREEMTKNQVSLTCLVKGFYPSDIAVEWESNGQPENNYKTTPPVLDSDGSFFLYSKLTVDKSRWQQGNVFSCSVMHEALHNHYTQKSLSLSPG", "values": [{"measurement": "IC50", "setting": "[1]", "value": 5.9, "unit": "nM"}, {"measurement": "IC50", "setting": "[2]", "value": 4.3, "unit": "nM"}]}
